Experimental data taken from US11306156.
Blank lines part the entries; values can stand above or below the substance they belong to.

Assays:
[1] = target: Cetuximab light chain F116C_Q124R_T178R; assay: SMCA, LC-MS; change vs wild-type bispecific; competing light chain m14
[2] = target: Cetuximab light chain F116C_Q124R_T178R; assay: SMCA: H1, H2, L1, L2 co-expressed in CHO-3E7, protein A purified, LC-MS; competing light chain m6; against wild-type bispecific
[3] = target: Cetuximab light chain Q38E_Q124E_Q160E_T180E; assay: SMCA: H1, H2, L1, L2 co-expressed in CHO-3E7, protein A purified, LC-MS; competing light chain m14; against wild-type bispecific
[4] = target: Cetuximab light chain Q124E_L135W_Q160E_T180E; assay: SMCA, LC-MS; change vs wild-type bispecific; competing light chain m12
[5] = target: Cetuximab light chain Q124E_Q160E_T180E; assay: SMCA, LC-MS; change vs wild-type bispecific; competing light chain m15
[6] = target: tissue factor (TF) antigen (UniProt P13726); assay: SPR (ProteOn XPR36), Fab captured by His tag on anti-penta-His surface, TF injected as analyte; against wild-type D3H44 Fab; * = estimated from a Fab differing only in the L chain tag
[7] = target: tissue factor (TF) antigen (UniProt P13726); assay: SPR (ProteOn XPR36), Fab captured by His tag on anti-penta-His surface, TF injected as analyte, 1:1 fit; * = estimated from a Fab differing only in the L chain tag
[8] = target: D3H44 light chain F116C_Q124R_T178R; assay: SMCA: 2 heavy + 2 light chains co-expressed, protein A, LC-MS; competing light chain m12
[9] = target: D3H44 light chain F116C_Q124R_T178R; assay: SMCA, LC-MS of 4 co-expressed chains; competing light chain m32
[10] = target: D3H44 light chain F116C_Q124R_T178R; assay: SMCA, LC-MS; change vs wild-type bispecific; competing light chain m32
[11] = target: D3H44 light chain F116A_Q124R_L135V_T178R; assay: SMCA, LC-MS of 4 co-expressed chains; competing light chain m29
[12] = target: D3H44 light chain F116A_Q124R_L135V_T178R; assay: SMCA, LC-MS; change vs wild-type bispecific; competing light chain m45
[13] = target: D3H44 light chain F116A_Q124R_L135V_T178R; assay: SMCA, LC-MS; change vs wild-type bispecific; competing light chain m29
[14] = target: D3H44 light chain F116A_Q124R_L135V_T178R; assay: SMCA: 2 heavy + 2 light chains co-expressed, protein A, LC-MS; competing light chain m41

Substance: Cetuximab heavy chain A139C_L143E_K145T_Q179E
Change in % H2L2 Pairing (over all H2 species) with respect to wild type [1]: 0%
Change in % H2L2 Pairing (over all H2 species) with respect to wild type [2]: 3%

Substance: Cetuximab heavy chain Q39R_H172R_Q179K
Change in % H2L2 Pairing (over all H2 species) with respect to wild type [3]: 0.6%

Second part, the substance after the results:

Change in % H2L2 Pairing (over all H2 species) with respect to wild type [4]: 1.7%
Change in % H2L2 Pairing (over all H2 species) with respect to wild type [5]: 0%
Substance: Cetuximab heavy chain Q179K

change in median KD compared to wild type, -(log(KD design)-log(KD wt)) [6]: 0.05 log
Kd [7]: 0.14 nM
Substance: D3H44 H1L1 Fab heterodimer of LCCA Set # 9645 (H1 L143E_K145T_Q179E, L1 Q124K_T178R)

% H1L1 Pairing (over all H1 species) [8]: 100%
% H1L1 Pairing (over all H1 species) [9]: 100%
Change in % H1L1 Pairing (over all H1 species) with respect to wild type [10]: 38.1%
Substance: D3H44 heavy chain A139C_L143E_K145T_Q179E (from UniProt P0DOX5 2-448)

% H1L1 Pairing (over all H1 species) [11]: 100%
Change in % H1L1 Pairing (over all H1 species) with respect to wild type [12]: 58.1%
Change in % H1L1 Pairing (over all H1 species) with respect to wild type [13]: 41.9%
% H1L1 Pairing (over all H1 species) [14]: 100%
Substance: D3H44 heavy chain A139W_L143E_K145T_Q179E (from UniProt P0DOX5 2-448)
